In patent publication US20220356210A1, “A SERIES OF INJECTABLE HYDROGELS SELF-ASSEMBLED FROM SHORT PEPTIDES FOR VARIOUS BIOMEDICAL APPLICATIONS” (Agency for Science, Technology and Research, priority 2019, published 2022):
No end group written: not given here.

How the values were obtained:
[1] = tested on: human dermal fibroblasts (HDFs); test: In vitro cytotoxicity, MTT assay; format: cell-based; settings: 2000 μg/mL, 24 h
Experimental: (§1) 1000 μL of HDFs or keratinocytes (10^5 cells per mL) were seeded onto the 12-well Transwell plates (Corning). IIK12 (1%) with various contents of antimicrobial peptides were dissolved in water and incubated at 37° C. overnight and 100 μL of gels were then transferred to the inserts of the Transwell plate. 1 mL of fresh medium was added into the inserts. The plates were incubated for 24 h before proceeding to MTT assay. It is noted that cells without any treatment and Mupirocin (GSK) were used as controls. The data were expressed as mean and standard deviation of three replicates and the tests were repeated 3 times.

[2] = tested on: human primary keratinocytes; test: In vitro cytotoxicity, MTT assay; format: cell-based; settings: 24 h
Experimental: as §1

S. aureus [3] = test: Killing kinetics test; format: cell-based; settings: 24 h of incubation
Experimental: The microbes were treated with peptide hydrogels as described above. At various time periods of treatment, the microbial samples were diluted for plating (LB Agar, 1st Base). Incubation conditions: 18 h, 37° C. for bacteria. The colony-forming units were counted after the incubation period. The experiment was repeated in independent settings three times.

[4] = Rheology, G′ and G″ at frequency of 1 Hz; format: physicochemical; settings: incubated at 37° C. overnight
Experimental: The gelation time was determined by the vial tilting method. […] Rheology experiments were performed at room temperature using a control-strain rheometer (ARES G2, TA instruments). The rheometer is equipped with two sensitive force transducers for torque ranging from 0.05 μN·m to 200 mN·m. […] The solution was vortexed and then incubated to form hydrogel. The gel was placed onto parallel-plate geometry (8 mm in diameter). The dynamic storage modulus (G′) and loss modulus (G″) were examined as a function of frequency from 1 to 100 rad/s. The measurements were carried out at a strain amplitude (y) to ensure the linearity of viscoelasticity. Flow sweep (viscosity changes as a function of shear rate) was also performed to study shear thinning properties of hydrogels.

S. aureus [5] = test: Disk diffusion assay; format: cell-based; settings: hydrogel cast on inoculated agar, one day at 37° C.
Experimental: Antimicrobial activity was further tested through a disk diffusion assay. Briefly, microbial suspension (S. aureus, ATCC No. 6538) with 3.5×10^6 CFU/mL (40 μL) was spread on 1.5% LB agar plates. Disks (Sigma) were prepared to contain 50 μL of peptides with various concentrations by dripping 50 μL of peptides solutions onto a sterile disk. Disks were air-dried for several minutes before being placed onto different zones in the agar plates. Hydrogels (100 μL) were placed onto LB agar plates. The plates were incubated for 24 h at 37° C.

[6] = Gelation by vial tilting method; format: physicochemical
Experimental: The peptide powder was dissolved in water or other aqueous solutions at the required concentrations. Alternatively, the required salt may be added after the peptide aqueous solution is prepared. The hydrogel was formed by mixing the peptide aqueous solution and salt (if required). For example, the solution was vortexed and then incubated to form hydrogel. The hydrogel formed may be stored as formed, or may be dried, for example by freeze drying. Alternatively, the hydrogel may be formed as required. The gelation time was determined by the vial tilting method. […] Rheology experiments were performed at room temperature using a control-strain rheometer (ARES G2, TA instruments). The rheometer is equipped with two sensitive force transducers for torque ranging from 0.05 μN·m to 200 mN·m. The peptide powder was dissolved in water at concentrations ranging from 1.0 to 2.0 (w/v) %. The solution was vortexed and then incubated to form hydrogel. The gel was placed onto parallel-plate geometry (8 mm in diameter). The dynamic storage modulus (G′) and loss modulus (G″) were examined as a function of frequency from 1 to 100 rad/s. The measurements were carried out at a strain amplitude (y) to ensure the linearity of viscoelasticity. Flow sweep (viscosity changes as a function of shear rate) was also performed to study shear thinning properties of hydrogels.

[7] = Dynamic step strain amplitude test; format: physicochemical; settings: 2.0 (w/v) % in water
Excerpt: The reduction of viscosity was attributed to the disruption of physical cross-links between the peptide molecules upon the application of shear stress. In order for a peptide gel construct containing a drug and/or cell/s to be delivered by syringe, it is essential that the disrupted gel with low viscosity could rapidly recover back into a stiff gel when the shear stress terminates. The ability of the peptide hydrogels to recover was investigated using a dynamic step strain amplitude test, where strain of 0.5% and 100% were periodically applied on the peptide hydrogels. […] After subjected 30 s of continuous high strain, the strain was reduced to 0.5%. […] This reversibility of peptide hydrogel in the presence of DMEM was further evaluated under the same conditions. […] The G′ value is reduced remarkably by ˜2000 times to ˜1 Pa when subjected a high stain of 100%. […] A similar phenomenon was also observed for IIK12 hydrogel, where the storage moduli of IIK12 hydrogel increased with increasing peptide concentrations (Table 5). […] This rheological behavior of the peptide hydrogels offers a great advantage for use as an injectable matrix for delivery of therapeutics such as drugs and cells. The fast recovery kinetics can be explained by the fact that the physical cross-links of the gel network immediately recovered after the high strain terminated.

S. aureus [8] = test: Antimicrobial activity of peptide hydrogels (OD and agar plating); format: cell-based; settings: control gel, IIK12 at 1%, no antimicrobial peptide
Experimental: (§2) Hydrogels for the antimicrobial assays were prepared in 96-well tissue culture plates (NUNC). Briefly, IIK12 (1%) with various contents of antimicrobial peptides was dissolved in water and vortexed. 50 μL of solution was transferred to the wells. Gelation occurred overnight at 37° C. The growth of microorganisms on hydrogels was measured using a broth dilution method. Briefly, 30 μL of microorganism suspension (3.5×10^5 CFU/mL) was introduced onto the hydrogels, and a 96-well plate and peptide hydrogel without antimicrobial peptides were used as controls. The optical density readings of bacterial solutions were monitored by measuring OD600 nm. The assay was performed in four replicates for each sample and the experiments were repeated at least three times. Antimicrobial activity was further tested through a spread plate method. Briefly, hydrogels were challenged with microorganism solution, at the end of treatment, microbial suspension on the hydrogel surface was withdrawn and diluted sequentially, and then plated on 1.5% LB agar plates. The plates were incubated for 24 h at 37° C. (48 h at room temperature for C. albicans). Microbial colonies were formed and counted. The experiments were performed in triplicate and were repeated three times.

C. albicans = test: as above; format: cell-based; settings: control gel, IIK12 at 1%, no antimicrobial peptide
Experimental: as §2

E. coli = test: as above; format: cell-based; settings: control gel, IIK12 at 1%, no antimicrobial peptide
Experimental: as §2

## C/C(=C\C(=O)OCCCCCCCCC(=O)O)C[C@@H]1OC[C@H](C[C@@H]2O[C@H]2[C@@H](C)[C@H](C)O)[C@@H](O)[C@H]1O [Mupirocin, reference compound]
[1]
  Cell viability: more than 80%
[2]
  Cell viability: 80-90%

## IRIKIEIEIRIK (IRIKIEIEIRIK-NH2) [IIK12]
S. aureus [3]
  Log (CFU): 9.28
[4]; 0.6 wt %, H2O
  G′ (storage modulus): 65 Pa
  G″ (loss modulus): 7 Pa
[4]; 0.8 wt %, H2O
  G′ (storage modulus): 131 Pa
  G″ (loss modulus): 24 Pa
[4]; 1.0 wt %, DMEM
  G′ (storage modulus): 1206 Pa
  G″ (loss modulus): 176 Pa
[4]; 1.0 wt %, H2O
  G′ (storage modulus): 279 Pa
  G″ (loss modulus): 48 Pa
[4]; 1.5 wt %, H2O
  G′ (storage modulus): 598 Pa
  G″ (loss modulus): 66 Pa
[4]; 2.0 wt %, H2O
  G′ (storage modulus): 865 Pa
  G″ (loss modulus): 69 Pa
S. aureus [5]
  S. aureus colony formation on agar in contact with gel: ineffective
[6]; aqueous solution
  Lowest concentration at which hydrogels self-assembled: 0.6 (w/v) %
[6]; peptide conc. 0.6, 1.0 %
  Gelation in DI water at 37° C. (via tilting): Gel
[7]
  Rheological behavior in dynamic step strain amplitude measurement: reversible rheological behavior
S. aureus [8]
  Killing of the microbes (OD measurement and agar plating): ineffective
C. albicans
  Killing of the microbes (OD measurement and agar plating): ineffective
E. coli
  Killing of the microbes (OD measurement and agar plating): ineffective
